Measurements as given in PMC9477746, “Mechanism of AAA+ ATPase-mediated RuvAB–Holliday junction branch migration” (Nature, 2022).

T1: RuvA (Salmonella typhimurium, UniProt P66746 1-203)
T1 sequence: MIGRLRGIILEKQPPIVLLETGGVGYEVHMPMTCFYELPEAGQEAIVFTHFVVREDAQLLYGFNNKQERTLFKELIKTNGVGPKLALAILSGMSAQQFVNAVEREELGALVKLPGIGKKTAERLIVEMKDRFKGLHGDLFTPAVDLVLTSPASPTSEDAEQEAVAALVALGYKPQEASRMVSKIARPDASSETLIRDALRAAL

B1: N-terminally truncated RuvB (16-333) from S. thermophilus (domain or fragment, UniProt Q03IE9 16-333, looked up)
chain: VERTLRPQYFKEYIGQDKVKDQLKIFIEAAKLRDEALDHTLLFGPPGLGKTTMAFVIANEMGVNLKQTSGPAIEKAGDLVAILNDLEPGDILFIDEIHRMPMAVEEVLYSAMEDYYIDIMIGAGETSRSVHLDLPPFTLVGATTRAGMLSNPLRARFGINGHMEYYELPDLTEIVERTSEIFEMTITPEAALELARRSRGTPRIANRLLKRVRDYAQIMGDGVIDDKIADQALTMLDVDHEGLDYVDQKILRTMIEMYGGGPVGLGTLSVNIAEERETVEDMYEPYLIQKGFIMRTRTGRVATAKAYEHMGYDYTRDN
notes: RuvB, Holliday junction AAA+ ATPase, Streptococcus thermophilus, residues 16-333; domains RuvB^L 21-181, RuvB^S 182-254, RuvB^H 255-330; C-terminal TEV site, linker and HA tag; TEV cleavage done during dialysis, so residues of the TEV site may remain at the C-terminus; Tetrameric by gel filtration in solution, hexamer on DNA in the cryo-EM complex; also called RuvB (S. thermophilus); RuvB motor; …

What was measured:
[1] = target: the molecule itself; test: cryo-EM structure; in vitro reconstituted RuvAB-Holliday junction hetero-complex: SEC-purified RuvA-HJ mixed with RuvB, 10 mM MgCl2, equimolar ATPγS and ADP (1 mM), 37 °C 10 min, then on ice about 5 h before vitrification (dataset t2)
[2] = target: the molecule itself; test: SEC; Superdex 200 10/300GL, 100 mM NaCl, 1 mM EDTA, 0.5 mM DTT, 5% glycerol, 100 mM Tris-HCl pH 8; each protein alone; mass estimated from retention of a gel filtration standard
[3] = target: B1; test: cryo-EM structure; same reconstitution of the RuvAB-Holliday junction hetero-complex, on ice 30 min before vitrification (dataset t1); settings: both partners purified
[4] = target: T1, RuvA; test: EMSA; 5 mM EDTA; complex II (two tetramers) saturated at >500 nM RuvA; complex I (one tetramer) at <200 nM; EMSA: 30 mM Tris-HCl pH 8, 5 mM EDTA, 1 mM DTT, 100 ug/ml BSA, 30 min at 37 C; 6% PAGE at 4 C in 0.5x TAE; settings: protein: recombinant; tags: C-terminal His4; chain copies: 4; label: 5'-32P on one strand; four-way junction 1:2 2:3 3:4 4:1

Binder	stoichiometry N [1]	stoichiometry N [2]	stoichiometry N [3] [RuvA^D3 per RuvB hexamer]	binding result [4]
B1	6	4		
RuvA from S. typhimurium (natural protein, UniProt P66746 1-203, looked up, RuvA, Holliday junction branch migration protein, Salmonella typhimurium; three domains (I, II, III); Tetramer in solution by gel filtration; two tetramers (eight chains) on the Holliday junction in the cryo-EM complex; Cloned into pET-52b(+) by NcoI and SacI; also called RuvA (S. typhimurium); recombinant S. typhimurium RuvA; source: E. coli BL21(DE3), purified (HisTrap, Superdex 200 SEC)) MIGRLRGIILEKQPPIVLLETGGVGYEVHMPMTCFYELPEAGQEAIVFTHFVVREDAQLLYGFNNKQERTLFKELIKTNGVGPKLALAILSGMSAQQFVNAVEREELGALVKLPGIGKKTAERLIVEMKDRFKGLHGDLFTPAVDLVLTSPASPTSEDAEQEAVAALVALGYKPQEASRMVSKIARPDASSETLIRDALRAAL	4		1	
HJ-Y2Ap (immobile Holliday junction) (structured_DNA) DNA 1: CTCATCGAGAATCTGCCGAGAGACCGAGCAGAATTCTATGTGTTTACCAAGCGCTG DNA 2: CAGCGCTTGGTAAACACATAGAATTCTGCTCGGTCTGAGCCGTCTAAGAGACCTAG DNA 3: CTAGGTCTCTTAGACGGCTCACTGGCTGTGGGATCCGAGCTGTCTAGAGACATCGA DNA 4: TCGATGTCTCTAGACAGCTCGGATCCCACAGCCAGTCTCGGCAGATTCTCGATGAG				binds
